T1: MBP-AGO10 NC (127-336) (A. thaliana, UniProt Q9XGW1 127-336)
T1 construct: source: E. coli BL21 (DE3), purified (amylose resin); not shown: MBP, N-terminal, kept
T1 sequence (looked up): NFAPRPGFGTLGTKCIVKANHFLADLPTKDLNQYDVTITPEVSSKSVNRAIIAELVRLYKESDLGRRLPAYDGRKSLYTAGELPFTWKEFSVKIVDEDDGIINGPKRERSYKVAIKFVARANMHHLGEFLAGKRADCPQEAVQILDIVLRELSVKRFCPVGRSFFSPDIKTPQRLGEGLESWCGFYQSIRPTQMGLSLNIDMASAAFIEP

T2: MBP-AGO10 (A. thaliana, UniProt Q9XGW1 1-988)
T2 construct: ARGONAUTE 10 (AGO10), A. thaliana; source: E. coli BL21 (DE3), purified (amylose resin); not shown: MBP, N-terminal, kept
T2 sequence (looked up): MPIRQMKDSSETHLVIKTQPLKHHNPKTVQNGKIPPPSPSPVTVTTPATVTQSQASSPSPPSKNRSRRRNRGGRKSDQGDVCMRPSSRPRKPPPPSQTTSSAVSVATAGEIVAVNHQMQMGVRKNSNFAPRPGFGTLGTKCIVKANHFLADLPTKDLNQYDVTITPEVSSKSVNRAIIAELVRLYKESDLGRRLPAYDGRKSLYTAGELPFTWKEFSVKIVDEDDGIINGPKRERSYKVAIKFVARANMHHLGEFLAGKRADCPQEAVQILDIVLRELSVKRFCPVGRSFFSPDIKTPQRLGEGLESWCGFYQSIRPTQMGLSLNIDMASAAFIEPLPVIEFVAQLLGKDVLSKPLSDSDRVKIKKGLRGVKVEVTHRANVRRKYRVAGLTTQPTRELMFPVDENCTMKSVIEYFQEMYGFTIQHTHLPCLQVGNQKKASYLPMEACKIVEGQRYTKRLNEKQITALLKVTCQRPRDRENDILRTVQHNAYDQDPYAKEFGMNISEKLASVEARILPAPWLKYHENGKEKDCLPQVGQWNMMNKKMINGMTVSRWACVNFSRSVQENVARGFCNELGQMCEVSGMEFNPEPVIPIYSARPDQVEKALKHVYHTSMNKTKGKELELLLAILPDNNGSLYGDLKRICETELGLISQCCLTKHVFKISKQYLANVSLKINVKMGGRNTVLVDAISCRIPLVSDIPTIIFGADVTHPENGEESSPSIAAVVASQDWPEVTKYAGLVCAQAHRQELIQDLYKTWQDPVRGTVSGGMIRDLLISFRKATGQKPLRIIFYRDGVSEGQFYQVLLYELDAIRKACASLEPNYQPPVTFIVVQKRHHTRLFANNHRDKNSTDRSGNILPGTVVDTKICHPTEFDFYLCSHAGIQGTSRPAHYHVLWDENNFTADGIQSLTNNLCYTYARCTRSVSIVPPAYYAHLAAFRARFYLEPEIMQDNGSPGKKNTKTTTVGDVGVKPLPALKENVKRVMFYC

T3: MBP-AGO1 (A. thaliana, UniProt O04379 1-1048)
T3 construct: ARGONAUTE 1 (AGO1), A. thaliana; purified as described in Zhang et al., 2006b; source: E. coli, purified (amylose resin); not shown: MBP, N-terminal, kept
T3 sequence (looked up): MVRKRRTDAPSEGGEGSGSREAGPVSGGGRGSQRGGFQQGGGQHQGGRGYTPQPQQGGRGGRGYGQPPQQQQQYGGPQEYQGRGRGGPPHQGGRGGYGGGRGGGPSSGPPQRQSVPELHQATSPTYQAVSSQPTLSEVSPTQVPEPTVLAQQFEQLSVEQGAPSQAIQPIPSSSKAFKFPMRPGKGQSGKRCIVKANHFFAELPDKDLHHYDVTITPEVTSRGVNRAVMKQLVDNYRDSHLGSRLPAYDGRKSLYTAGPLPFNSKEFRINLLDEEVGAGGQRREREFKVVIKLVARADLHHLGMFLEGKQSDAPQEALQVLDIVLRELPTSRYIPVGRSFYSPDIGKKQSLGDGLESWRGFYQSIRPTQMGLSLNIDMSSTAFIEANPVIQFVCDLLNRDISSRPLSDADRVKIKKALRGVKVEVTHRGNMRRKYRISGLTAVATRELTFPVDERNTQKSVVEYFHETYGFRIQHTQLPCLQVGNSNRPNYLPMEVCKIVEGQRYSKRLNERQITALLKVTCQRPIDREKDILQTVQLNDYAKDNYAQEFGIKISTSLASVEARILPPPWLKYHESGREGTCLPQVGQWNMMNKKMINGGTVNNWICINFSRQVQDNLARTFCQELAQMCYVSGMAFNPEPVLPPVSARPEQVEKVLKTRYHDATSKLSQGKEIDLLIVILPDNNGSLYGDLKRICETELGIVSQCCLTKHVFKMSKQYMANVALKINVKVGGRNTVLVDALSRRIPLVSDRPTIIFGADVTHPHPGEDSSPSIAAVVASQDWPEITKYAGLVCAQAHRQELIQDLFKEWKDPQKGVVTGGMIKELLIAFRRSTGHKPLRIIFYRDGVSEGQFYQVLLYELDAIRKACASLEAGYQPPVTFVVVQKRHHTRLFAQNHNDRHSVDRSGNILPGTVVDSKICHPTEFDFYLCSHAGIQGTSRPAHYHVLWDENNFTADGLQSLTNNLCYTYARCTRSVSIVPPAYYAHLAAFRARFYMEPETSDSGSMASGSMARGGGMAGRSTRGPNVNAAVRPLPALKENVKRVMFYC

T4: MBP-AGO10 PIWI (625-988) (A. thaliana, UniProt Q9XGW1 625-988)
T4 construct: AGO10, A. thaliana, residues 625-988 (PIWI); source: E. coli BL21 (DE3), purified (amylose resin); not shown: MBP, N-terminal, kept
T4 sequence (looked up): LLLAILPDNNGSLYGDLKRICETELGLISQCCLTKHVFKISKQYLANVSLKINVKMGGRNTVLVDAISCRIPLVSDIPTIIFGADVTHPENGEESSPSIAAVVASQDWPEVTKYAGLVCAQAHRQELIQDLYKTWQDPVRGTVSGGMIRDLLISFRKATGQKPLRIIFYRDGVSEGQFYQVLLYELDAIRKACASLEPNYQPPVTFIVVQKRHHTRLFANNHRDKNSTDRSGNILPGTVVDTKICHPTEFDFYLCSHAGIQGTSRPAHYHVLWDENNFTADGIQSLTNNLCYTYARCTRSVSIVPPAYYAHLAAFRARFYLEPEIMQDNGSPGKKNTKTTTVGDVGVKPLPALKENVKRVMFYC

B1: 6His-SUMO-RICE1 (natural protein, A. thaliana, UniProt Q9SF21 1-200, looked up)
chain: MASFDGQGFMMVDNSWVQTKAIDVESTTDISPYLSKILEDSVWNGNRSIVFDVYWDVKSVSTKSEWRLCSVKFSTKNFCLFLRLPNPFCDNLKDLYRFFASKFVTFVGVQIQEDLALLKENHGIVIRSSLEIGKLAAKARGTPIVEFLGTRELAHKILWYDMSRLDSIQSKWDEASSNDRLEAAAIEGWLIFNVYDQLQQ
notes: RICE1 (At3g11770), A. thaliana; open reading frame in pET28a-SUMO-DC; source: E. coli BL21 (DE3), purified (Ni-NTA); not shown: His6, N-terminal, kept; SUMO, N-terminal, kept
B2: 6His-SUMO-RICE2 (natural protein, A. thaliana, UniProt Q9FNG3 1-206, looked up)
chain: MASFDGPKFKMTDGSYVQTKTIDVGSSTDISPYLSLIREDSILNGNRAVIFDVYWDVGFPETETKTKTSGWSLSSVKLSTRNLCLFLRLPKPFHDNLKDLYRFFASKFVTFVGVQIEEDLDLLRENHGLVIRNAINVGKLAAEARGTLVLEFLGTRELAHRVLWSDLGQLDSIEAKWEKAGPEEQLEAAAIEGWLIVNVWDQLSDE
notes: RICE2 (At5g06450; AtDECP), A. thaliana; open reading frame in pET28a-SUMO-DC; also called AtDECP; source: E. coli BL21 (DE3), purified (Ni-NTA); not shown: His6, N-terminal, kept; SUMO, N-terminal, kept
B3: RICE2, purified recombinant (SUMO tag cleaved) (enzyme, A. thaliana, UniProt Q9FNG3 1-206, looked up)
chain: MASFDGPKFKMTDGSYVQTKTIDVGSSTDISPYLSLIREDSILNGNRAVIFDVYWDVGFPETETKTKTSGWSLSSVKLSTRNLCLFLRLPKPFHDNLKDLYRFFASKFVTFVGVQIEEDLDLLRENHGLVIRNAINVGKLAAEARGTLVLEFLGTRELAHRVLWSDLGQLDSIEAKWEKAGPEEQLEAAAIEGWLIVNVWDQLSDE
notes: RICE2 (At5g06450; AtDECP), A. thaliana; full-length cDNA in pET28a-SUMO (BamHI/SacI); also called AtDECP; source: E. coli BL21 (DE3), purified (Ni-NTA, SUMO protease cleavage, SEC); not shown: His6, N-terminal, cleaved; SUMO, N-terminal, cleaved
B4: RICE1 D52A, purified recombinant (enzyme, A. thaliana, UniProt Q9SF21 1-200, looked up)
chain: MASFDGQGFMMVDNSWVQTKAIDVESTTDISPYLSKILEDSVWNGNRSIVFAVYWDVKSVSTKSEWRLCSVKFSTKNFCLFLRLPNPFCDNLKDLYRFFASKFVTFVGVQIQEDLALLKENHGIVIRSSLEIGKLAAKARGTPIVEFLGTRELAHKILWYDMSRLDSIQSKWDEASSNDRLEAAAIEGWLIFNVYDQLQQ
notes: RICE1 (At3g11770), A. thaliana; point mutant made on pET28a-SUMO-RICE1; source: E. coli BL21 (DE3), purified (Ni-NTA, SUMO protease cleavage, SEC); not shown: His6, N-terminal, cleaved; SUMO, N-terminal, cleaved
B5: RICE1 Y54S, purified recombinant (enzyme, A. thaliana, UniProt Q9SF21 1-200, looked up)
chain: MASFDGQGFMMVDNSWVQTKAIDVESTTDISPYLSKILEDSVWNGNRSIVFDVSWDVKSVSTKSEWRLCSVKFSTKNFCLFLRLPNPFCDNLKDLYRFFASKFVTFVGVQIQEDLALLKENHGIVIRSSLEIGKLAAKARGTPIVEFLGTRELAHKILWYDMSRLDSIQSKWDEASSNDRLEAAAIEGWLIFNVYDQLQQ
notes: as for B4
B6: RICE1 E187A, purified recombinant (enzyme, A. thaliana, UniProt Q9SF21 1-200, looked up)
chain: MASFDGQGFMMVDNSWVQTKAIDVESTTDISPYLSKILEDSVWNGNRSIVFDVYWDVKSVSTKSEWRLCSVKFSTKNFCLFLRLPNPFCDNLKDLYRFFASKFVTFVGVQIQEDLALLKENHGIVIRSSLEIGKLAAKARGTPIVEFLGTRELAHKILWYDMSRLDSIQSKWDEASSNDRLEAAAIAGWLIFNVYDQLQQ
notes: as for B4

Legend:
MBP-AGO10 NC (127-336) = target: T1, MBP-AGO10 NC (127-336); test: pull-down; His-SUMO baits and MBP-fusion preys purified from E. coli; prey preabsorbed on Ni-NTA resin, then incubated with bait 1 hr at room temperature and captured on Ni-NTA; 50 mM Tris pH 7.5, 150 mM NaCl, 0.2% glycerol, 0.6% Triton X-100, 0.5 mM β-mercaptoethanol; six washes with 300 mM NaCl; blot with anti-MBP; conditions: both partners purified
MBP-AGO10 = target: T2, MBP-AGO10; test: as above; conditions: both partners purified
MBP-AGO1 = target: T3, MBP-AGO1; test: as above; conditions: both partners purified
MBP-AGO10 PIWI (625-988) = target: T4, MBP-AGO10 PIWI (625-988); test: as above; conditions: both partners purified
[1] = target: the molecule itself; test: SEC; purified proteins after SUMO protease cleavage on Superdex75 (1.6 x 60), 20 mM Tris-HCl pH 7.5, 150 mM NaCl

Binder	binding result (MBP-AGO10 NC (127-336))	binding result (MBP-AGO10)	binding result (MBP-AGO1)	binding result (MBP-AGO10 PIWI (625-988))	binding result [1]	also measured
B1	binds	binds	binds	binds	–	–
B2	binds	binds	binds	binds	–	–
B3	–	–	–	–	–	stoichiometry N [1]: ~6
B4	–	–	–	–	binds	–
B5	–	–	–	–	binds	–
B6	–	–	–	–	binds	–
